Source: patent US20110229922A1, “SCREENING ASSAYS FOR THE IDENTIFICATION OF BACE2 INHIBITORS” (priority 2008, published 2011)
No end group written: not given here. MR121 = fluorophore label at the N-terminus

Experiments:
[1] = target: T1, BACE2 (Homo sapiens, UniProt Q9Y5Z0); assay: MR121-peptide cleavage assay; format: biochemical; set-up: scale not given here; conditions: substrate peptides labelled with MR121 at N-terminus and tryptophan at C-terminus
T1 construct: made in house; host or cells: E. coli BL21(DE3)
T1 sequence (Q9Y5Z0 20-465): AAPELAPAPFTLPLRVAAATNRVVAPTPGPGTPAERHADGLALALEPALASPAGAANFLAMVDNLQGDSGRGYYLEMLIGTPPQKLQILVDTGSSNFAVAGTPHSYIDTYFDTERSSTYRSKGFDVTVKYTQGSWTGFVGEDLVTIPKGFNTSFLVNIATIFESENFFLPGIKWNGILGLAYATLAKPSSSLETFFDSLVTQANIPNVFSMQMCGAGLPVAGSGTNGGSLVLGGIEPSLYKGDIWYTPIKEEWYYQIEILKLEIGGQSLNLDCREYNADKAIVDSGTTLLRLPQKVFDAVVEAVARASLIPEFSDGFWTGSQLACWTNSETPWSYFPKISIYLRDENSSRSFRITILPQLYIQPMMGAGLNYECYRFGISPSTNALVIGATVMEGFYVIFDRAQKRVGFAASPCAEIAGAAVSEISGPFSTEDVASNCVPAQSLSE
Experimental: In a related assay, a peptide was devised with the same sequence, which was labeled at the N-terminus with MR121 and at the C-terminus with Tryptophan.
Substrate peptides derived from TMEM27 with activity in the MR121-peptide cleavage assay.
(§1) BACE2 enzyme ectodomain was prepared as described in Ostermann et al [“Crystal Structure of Human BACE2 in Complex with a Hydroxyethylamine Transition-state Inhibitor.” Journal of Molecular Biology 355 (2006) 249-261].

[2] = target: T1, BACE2; assay: FRET peptide cleavage assay, BACE2 activity on peptide substrates; format: biochemical; conditions: pH 4.5, substrate 5 μM, FIG. 7 and FIG. 9
Experimental: The FRET assay was performed essentially as described in Grüninger-Leitch et al. [Substrate and inhibitor profile of BACE (beta-secretase) and comparison with other mammalian aspartic proteases. Journal of Biological Chemistry (2002) 277(7) 4687-93]. In summary, a peptide is designed that is cleaved by the protease. The peptide is labelled with dabsyl at the N terminus and Lucifer Yellow at the C-terminus, such that for an intact peptide the Lucifer Yellow fluorescence is quenched by the dabsyl. When the peptide is cut by BACE2, the quenching is removed and a fluorescent signal is generated.
The assay was performed as described in Grueninger et al. 2002 at pH 4.5 using a substrate concentration of 5 μM. All FRET-peptides had the format described.
as §1

[3] = target: BACE1 (Homo sapiens, UniProt P56817); assay: FRET peptide cleavage assay, BACE1 activity on peptide substrates; format: biochemical; conditions: pH 4.5, substrate 5 μM, FIG. 7
[4] = tested on: Min6 cells; assay: Proliferation assay in Min6 cells (EdU, confocal microscopy); format: cell-based; conditions: 48 hours, p<10-6, FIG. 5a
Experimental: 50′000 MING B1 cells per well were seeded in a 96-well plate using standard trypsinization method. The following day, serum-supplemented complete medium (described earlier) was removed and replaced by serum-free and low glucose medium (Invitrogen) supplemented with the compound as follows: 10 nM exendin-4 (Sigma-Aldrich) as a positive control was added to the cells every 12 h, to avoid degradation. […] As an absolute positive control cells were also grown in FCS supplemented standard media. Cells were incubated for 48 hours.
After this incubation, medium was discarded and replaced by the serum-supplemented medium containing 10 nM EdU (Invitrogen) and incubated for 1 h at 37° C. […]
Spinning-disc confocal fluorescence microscopy of the 96-well plate has been performed on the high-throughput automated imaging system Opera™ QEHS (PerkinElmer Cellular Technologies, Hamburg, Germany). […] In each well, typically 12 pairs of scanning images were recorded through a UAPO 20×NA 0.7 water immersion objective lens (Olympus) and optimized filter sets by 2 independent high quantum-efficiency 12 bit CCD cameras (1.3 mega pixels monochrome). […]
Confocal micrographs were analyzed using the proprietary software environment of PerkinElmer's Opera (Acapella 1.8, PerkinElmer Cellular Technologies, Hamburg, Germany). […]

Chain of BACE1 (P56817 46-501, species assumed): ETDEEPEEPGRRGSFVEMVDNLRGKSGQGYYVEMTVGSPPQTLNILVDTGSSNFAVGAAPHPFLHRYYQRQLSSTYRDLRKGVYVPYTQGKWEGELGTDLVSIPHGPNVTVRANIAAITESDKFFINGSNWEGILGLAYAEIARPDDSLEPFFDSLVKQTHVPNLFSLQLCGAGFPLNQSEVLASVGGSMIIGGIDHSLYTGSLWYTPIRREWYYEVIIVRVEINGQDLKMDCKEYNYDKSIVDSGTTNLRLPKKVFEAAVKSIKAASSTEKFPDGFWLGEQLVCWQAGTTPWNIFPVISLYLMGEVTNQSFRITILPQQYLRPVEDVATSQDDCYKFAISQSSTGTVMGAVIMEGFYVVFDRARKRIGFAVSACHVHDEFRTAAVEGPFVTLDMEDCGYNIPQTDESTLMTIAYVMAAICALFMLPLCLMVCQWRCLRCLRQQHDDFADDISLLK

Substance | Relative activity [1] | other results
C LEFLKI W: Substrate peptide derived from TMEM27 for MR121-peptide cleavage assay (MR121-CLEFLKIW) | 24 | –
C QELEFLKI W: Substrate peptide derived from TMEM27 for MR121-peptide cleavage assay (MR121-CQELEFLKIW) | 100 | –
C QTLEF W: Substrate peptide derived from TMEM27 for MR121-peptide cleavage assay (MR121-CQTLEFW) | 21 | –
C QTLEFL W: Substrate peptide derived from TMEM27 for MR121-peptide cleavage assay (MR121-CQTLEFLW) | 32 | –
C QTLEFLK W: Substrate peptide derived from TMEM27 for MR121-peptide cleavage assay (MR121-CQTLEFLKW) | 62 | –
C QTLEFLKI W: Substrate peptide derived from TMEM27 for MR121-peptide cleavage assay (MR121-CQTLEFLKIW) | 96 | –
C QTLEFLKIP W: Substrate peptide derived from TMEM27 for MR121-peptide cleavage assay (MR121-CQTLEFLKIPW) | 75 | –
C QTLEFLKIPS W: Substrate peptide derived from TMEM27 for MR121-peptide cleavage assay (MR121-CQTLEFLKIPSW) | 91 | –
C TLEFLKI W: Substrate peptide derived from TMEM27 for MR121-peptide cleavage assay (MR121-CTLEFLKIW) | 28 | –
dabsyl-NSLEFLGIQP-lucifer yellow: FRET peptide based on the sequence of ACE2 at the site equivalent to the BACE2 cleavage site in TMEM27 (dabsyl-NSLEFLGIQP-{Lucifer Yellow}) | – | BACE2 activity against FRET peptide substrate [2]: efficiency greater than that of the TMEM27 substrate
dabsyl—QTLEFLKIPS—LucY: FRET peptide based on the TMEM27 sequence, dabsyl at N terminus and Lucifer Yellow at C-terminus (dabsyl-QTLEFLKIPS-{Lucifer Yellow}) | – | BACE2 activity against FRET peptide substrate [2]: high activity; BACE1 activity against FRET peptide substrate [3]: insignificant activity
exendin-4 | – | proliferation rate compared to basal proliferation rate of starved cells [4]: highly significant proliferation increase
